For 47 substances, ratio to parent results are on record in paper PMC6056499, “A systematic dissection of sequence elements determining β-Klotho and FGF interaction and signaling” (Scientific Reports, 2018).

Assay [1] has as its target human β-Klotho extracellular domain (aa1–992) fused with a 6 × His tag at the C-terminus (UniProt Q86Z14). Briefly: AlphaScreen. Particulars: parent: est. 1.0, read off a plot. (In general: Bead proximity is the source of the signal in Alpha formats.)
For assay [2] the target is unchanged. The assay is described as follows: solid-phase binding assay. Particulars: parent: est. 1.0; read off a plot.
The mark [3] stands for this setting: competition with FGF19 for β-Klotho.
Where [4] appears, read: competition with FGF21 for β-Klotho.

Sequence of human β-Klotho extracellular domain (aa1–992) fused with a 6 × His tag at the C-terminus (Q86Z14 53-992): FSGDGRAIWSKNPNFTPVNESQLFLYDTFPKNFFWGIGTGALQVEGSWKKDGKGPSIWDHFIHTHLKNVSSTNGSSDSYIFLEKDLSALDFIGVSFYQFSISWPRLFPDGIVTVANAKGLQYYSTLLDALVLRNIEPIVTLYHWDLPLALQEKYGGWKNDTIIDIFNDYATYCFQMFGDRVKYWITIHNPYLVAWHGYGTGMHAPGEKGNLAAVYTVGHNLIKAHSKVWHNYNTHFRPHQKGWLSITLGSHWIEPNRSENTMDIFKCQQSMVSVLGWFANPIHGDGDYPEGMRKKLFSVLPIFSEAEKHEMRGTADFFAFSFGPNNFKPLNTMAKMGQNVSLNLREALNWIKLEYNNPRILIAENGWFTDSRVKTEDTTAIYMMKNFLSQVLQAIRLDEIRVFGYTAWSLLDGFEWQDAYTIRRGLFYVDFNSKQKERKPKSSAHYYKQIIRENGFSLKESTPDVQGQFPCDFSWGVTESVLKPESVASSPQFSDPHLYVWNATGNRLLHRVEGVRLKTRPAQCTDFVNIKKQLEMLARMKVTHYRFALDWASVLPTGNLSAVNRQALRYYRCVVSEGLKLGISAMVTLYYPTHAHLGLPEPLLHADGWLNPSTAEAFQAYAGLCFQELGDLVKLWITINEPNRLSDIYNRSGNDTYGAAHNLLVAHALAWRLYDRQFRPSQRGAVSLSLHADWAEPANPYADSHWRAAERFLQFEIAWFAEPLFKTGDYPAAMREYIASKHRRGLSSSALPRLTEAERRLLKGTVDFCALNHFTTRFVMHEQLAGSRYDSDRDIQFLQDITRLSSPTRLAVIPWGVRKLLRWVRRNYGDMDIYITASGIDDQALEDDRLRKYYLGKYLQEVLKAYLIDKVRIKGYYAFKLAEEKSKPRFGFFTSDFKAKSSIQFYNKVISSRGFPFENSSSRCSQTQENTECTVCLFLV
Sequence of FGF19 C-terminal peptide, WT FGF19^185–216 (from UniProt O95750) 216K-A (O95750 185-216, change not shown): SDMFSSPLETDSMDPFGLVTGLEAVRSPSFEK
Sequence of FGF19 C-terminal peptide, WT FGF19^185–216 (from UniProt O95750) 201G-A (O95750 185-216, change not shown): as above
Sequence of FGF19 C-terminal peptide, WT FGF19^185–216 (from UniProt O95750) 185S-A (O95750 185-216, change not shown): as above
Sequence of FGF19 C-terminal peptide, WT FGF19^185–216 (from UniProt O95750) 191P-A (O95750 185-216, change not shown): as above
Sequence of FGF19 C-terminal peptide, WT FGF19^185–216 (from UniProt O95750) 188F-A (O95750 185-216, change not shown): as above
Sequence of FGF19 C-terminal peptide, WT FGF19^185–216 (from UniProt O95750) 186D-A (O95750 185-216, change not shown): as above
Sequence of FGF19 C-terminal peptide, WT FGF19^185–216 (from UniProt O95750) 195D-A (O95750 185-216, change not shown): as above
Sequence of FGF19 C-terminal peptide, WT FGF19^185–216 (from UniProt O95750) 189S-A (O95750 185-216, change not shown): as above
Sequence of FGF19 C-terminal peptide, WT FGF19^185–216 (from UniProt O95750) 190S-A (O95750 185-216, change not shown): as above
Sequence of FGF19 C-terminal peptide, WT FGF19^185–216 (from UniProt O95750) 206L-A (O95750 185-216, change not shown): as above
Sequence of FGF19 C-terminal peptide, WT FGF19^185–216 (from UniProt O95750) 197M-A (O95750 185-216, change not shown): as above
Sequence of FGF19 C-terminal peptide, WT FGF19^185–216 (from UniProt O95750) 192L-A (O95750 185-216, change not shown): as above
Sequence of FGF19 C-terminal peptide, WT FGF19^185–216 (from UniProt O95750) 194T-A (O95750 185-216, change not shown): as above
Sequence of FGF19 C-terminal peptide, WT FGF19^185–216 (from UniProt O95750) 196S-A (O95750 185-216, change not shown): as above
Sequence of FGF19 C-terminal peptide, WT FGF19^185–216 (from UniProt O95750) 210R-A (O95750 185-216, change not shown): as above
Sequence of FGF19 C-terminal peptide, WT FGF19^185–216 (from UniProt O95750) 205G-A (O95750 185-216, change not shown): as above
Sequence of FGF19 C-terminal peptide, WT FGF19^185–216 (from UniProt O95750) 207E-A (O95750 185-216, change not shown): as above
Sequence of FGF19 C-terminal peptide, WT FGF19^185–216 (from UniProt O95750) 187M-A (O95750 185-216, change not shown): as above
Sequence of FGF19 C-terminal peptide, WT FGF19^185–216 (from UniProt O95750) 209V-A (O95750 185-216, change not shown): as above
Sequence of FGF19 C-terminal peptide, WT FGF19^185–216 (from UniProt O95750) 204T-A (O95750 185-216, change not shown): as above
Sequence of FGF19 C-terminal peptide, WT FGF19^185–216 (from UniProt O95750) 203V-A (O95750 185-216, change not shown): as above
Sequence of FGF19 C-terminal peptide, WT FGF19^185–216 (from UniProt O95750) 193E-A (O95750 185-216, change not shown): as above
Sequence of FGF19 C-terminal peptide, WT FGF19^185–216 (from UniProt O95750) 215E-A (O95750 185-216, change not shown): as above
Sequence of mature human FGF21 polypeptide fused with the human Fc fragment at the N-terminus (Fc-FGF21), wild type (from UniProt Q9NSA1) 175P-R (Q9NSA1 29-209, change not shown): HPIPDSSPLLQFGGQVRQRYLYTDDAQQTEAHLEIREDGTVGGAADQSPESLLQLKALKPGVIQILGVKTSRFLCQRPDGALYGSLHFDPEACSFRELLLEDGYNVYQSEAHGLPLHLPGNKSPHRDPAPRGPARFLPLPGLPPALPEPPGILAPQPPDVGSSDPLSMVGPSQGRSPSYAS
Sequence of mature human FGF21 polypeptide fused with the human Fc fragment at the N-terminus (Fc-FGF21), wild type (from UniProt Q9NSA1) 200S-A (Q9NSA1 29-209, change not shown): as above
Sequence of mature human FGF21 polypeptide fused with the human Fc fragment at the N-terminus (Fc-FGF21), wild type (from UniProt Q9NSA1) 179G-R (Q9NSA1 29-209, change not shown): as above
Sequence of mature human FGF21 polypeptide fused with the human Fc fragment at the N-terminus (Fc-FGF21), wild type (from UniProt Q9NSA1) 182A-R (Q9NSA1 29-209, change not shown): as above
Sequence of mature human FGF21 polypeptide fused with the human Fc fragment at the N-terminus (Fc-FGF21), wild type (from UniProt Q9NSA1) 180I-R (Q9NSA1 29-209, change not shown): as above
Sequence of mature human FGF21 polypeptide fused with the human Fc fragment at the N-terminus (Fc-FGF21), wild type (from UniProt Q9NSA1) 168P-A (Q9NSA1 29-209, change not shown): as above
Sequence of mature human FGF21 polypeptide fused with the human Fc fragment at the N-terminus (Fc-FGF21), wild type (from UniProt Q9NSA1) 167L-R (Q9NSA1 29-209, change not shown): as above
Sequence of mature human FGF21 polypeptide fused with the human Fc fragment at the N-terminus (Fc-FGF21), wild type (from UniProt Q9NSA1) 198G-R (Q9NSA1 29-209, change not shown): as above
Sequence of mature human FGF21 polypeptide fused with the human Fc fragment at the N-terminus (Fc-FGF21), wild type (from UniProt Q9NSA1) 209S-R (Q9NSA1 29-209, change not shown): as above
Sequence of mature human FGF21 polypeptide fused with the human Fc fragment at the N-terminus (Fc-FGF21), wild type (from UniProt Q9NSA1) 188V-A (Q9NSA1 29-209, change not shown): as above
Sequence of mature human FGF21 polypeptide fused with the human Fc fragment at the N-terminus (Fc-FGF21), wild type (from UniProt Q9NSA1) 168P-R (Q9NSA1 29-209, change not shown): as above
Sequence of mature human FGF21 polypeptide fused with the human Fc fragment at the N-terminus (Fc-FGF21), wild type (from UniProt Q9NSA1) 190S-A (Q9NSA1 29-209, change not shown): as above
Sequence of mature human FGF21 polypeptide fused with the human Fc fragment at the N-terminus (Fc-FGF21), wild type (from UniProt Q9NSA1) 164F-A (Q9NSA1 29-209, change not shown): as above
Sequence of mature human FGF21 polypeptide fused with the human Fc fragment at the N-terminus (Fc-FGF21), wild type (from UniProt Q9NSA1) 184Q-A (Q9NSA1 29-209, change not shown): as above

Turning to “FGF19 C-terminal peptide, WT FGF19^185–216 (from UniProt O95750) 196S-A”, the ratio to parent in assay [1] (setting [3]) turned out to be 9.8; in assay [1] (setting [4]), 13. In the same order, the values of “FGF19 C-terminal peptide, WT FGF19^185–216 (from UniProt O95750) 203V-A” are 3.8 and 5.5. As to “FGF19 C-terminal peptide, WT FGF19^185–216 (from UniProt O95750) 191P-A”, the ratio to parent in assay [1] (setting [3]) is 0.8; in assay [1] (setting [4]), 0.5.

“FGF19 C-terminal peptide, WT FGF19^185–216 (from UniProt O95750) 189S-A”: the ratio to parent in assay [1] (setting [3]) turned out to be 1.7; in assay [1] (setting [4]), 1.3. For “FGF19 C-terminal peptide, WT FGF19^185–216 (from UniProt O95750) 210R-A” the same measures were 1.2 and 1.4. For the substance “FGF19 C-terminal peptide, WT FGF19^185–216 (from UniProt O95750) 215E-A”, the ratio to parent in assay [1] (setting [3]) came out at 7; in assay [1] (setting [4]), 5.2.

For “FGF19 C-terminal peptide, WT FGF19^185–216 (from UniProt O95750) 192L-A”, the ratio to parent came to 11 in assay [1] (setting [3]) and 7.5 in assay [1] (setting [4]). Regarding “FGF19 C-terminal peptide, WT FGF19^185–216 (from UniProt O95750) 214F-A”, in assay [1] (setting [3]), the ratio to parent worked out at 220. As to “FGF19 C-terminal peptide, WT FGF19^185–216 (from UniProt O95750) 195D-A”, the results for the ratio to parent in assay [1] (setting [3]) and in assay [1] (setting [4]) were 5.5 and 4.5, respectively. For the substance “FGF19 C-terminal peptide, WT FGF19^185–216 (from UniProt O95750) 207E-A”, the ratio to parent in assay [1] (setting [3]) was determined as 0.6; in assay [1] (setting [4]) it was 1.1. For the substance “FGF19 C-terminal peptide, WT FGF19^185–216 (from UniProt O95750) 205G-A”, the ratio to parent in assay [1] (setting [3]) was found to be 1.3; in assay [1] (setting [4]) it was 1.4.

In the case of “FGF19 C-terminal peptide, WT FGF19^185–216 (from UniProt O95750) 197M-A”, the ratio to parent in assay [1] (setting [3]) was 0.8; in assay [1] (setting [4]), 0.3. In the case of “FGF19 C-terminal peptide, WT FGF19^185–216 (from UniProt O95750) 190S-A”, the ratio to parent came to 2.9 in assay [1] (setting [3]) and 1.4 in assay [1] (setting [4]).

For the substance “FGF19 C-terminal peptide, WT FGF19^185–216 (from UniProt O95750) 216K-A”, the ratio to parent in assay [1] (setting [3]) and in assay [1] (setting [4]) was 0.2 each time. In the case of “FGF19 C-terminal peptide, WT FGF19^185–216 (from UniProt O95750) 209V-A”, the ratio to parent in assay [1] (setting [3]) and in assay [1] (setting [4]) was 0.6 throughout. Consider “mature human FGF21 polypeptide fused with the human Fc fragment at the N-terminus (Fc-FGF21), wild type (from UniProt Q9NSA1) 205P-R”, for which the ratio to parent in assay [2] is 220.

Take “mature human FGF21 polypeptide fused with the human Fc fragment at the N-terminus (Fc-FGF21), wild type (from UniProt Q9NSA1) 190S-A”: in assay [2], the ratio to parent stood at 15.

With “mature human FGF21 polypeptide fused with the human Fc fragment at the N-terminus (Fc-FGF21), wild type (from UniProt Q9NSA1) 171P-R”, the ratio to parent in assay [2] was 1.2. Take “mature human FGF21 polypeptide fused with the human Fc fragment at the N-terminus (Fc-FGF21), wild type (from UniProt Q9NSA1) 180I-R”: the ratio to parent in assay [2] amounted to 2.3.

For the substance “FGF19 C-terminal peptide, WT FGF19^185–216 (from UniProt O95750) 213S-A”, the ratio to parent in assay [1] (setting [3]) was 90. Take “mature human FGF21 polypeptide fused with the human Fc fragment at the N-terminus (Fc-FGF21), wild type (from UniProt Q9NSA1) 183P-A”: in assay [2], the ratio to parent was 0.8. Still for that read-out and setting: the result for “mature human FGF21 polypeptide fused with the human Fc fragment at the N-terminus (Fc-FGF21), wild type (from UniProt Q9NSA1) 167L-R” reads 1.

For the substance “FGF19 C-terminal peptide, WT FGF19^185–216 (from UniProt O95750) 194T-A”, the ratio to parent amounted to 2.1 in assay [1] (setting [3]) and 1.4 in assay [1] (setting [4]). “FGF19 C-terminal peptide, WT FGF19^185–216 (from UniProt O95750) 188F-A”: the figures for the ratio to parent in assay [1] (setting [3]) and in assay [1] (setting [4]) were 2.7 and 1.4, respectively.

On to “FGF19 C-terminal peptide, WT FGF19^185–216 (from UniProt O95750) 185S-A”, for which the ratio to parent is 1.4 in assay [1] (setting [3]) and 0.8 in assay [1] (setting [4]). As to “mature human FGF21 polypeptide fused with the human Fc fragment at the N-terminus (Fc-FGF21), wild type (from UniProt Q9NSA1) 189G-A”, the ratio to parent in assay [2] turned out to be 0.8. With “FGF19 C-terminal peptide, WT FGF19^185–216 (from UniProt O95750) 204T-A”, the ratio to parent in assay [1] (setting [3]) amounted to 1.6; in assay [1] (setting [4]) it was 3.2. In the same order, the values of “FGF19 C-terminal peptide, WT FGF19^185–216 (from UniProt O95750) 187M-A” are 1.2 and 0.9.

“FGF19 C-terminal peptide, WT FGF19^185–216 (from UniProt O95750) 186D-A”: the results for the ratio to parent in assay [1] (setting [3]) and in assay [1] (setting [4]) were 0.8 and 0.7, respectively. In the case of “mature human FGF21 polypeptide fused with the human Fc fragment at the N-terminus (Fc-FGF21), wild type (from UniProt Q9NSA1) 203R-A”, in assay [2], the ratio to parent is 2. The same measure, in the same setting: with “mature human FGF21 polypeptide fused with the human Fc fragment at the N-terminus (Fc-FGF21), wild type (from UniProt Q9NSA1) 186P-A” the figure was 12. Take “mature human FGF21 polypeptide fused with the human Fc fragment at the N-terminus (Fc-FGF21), wild type (from UniProt Q9NSA1) 168P-R”: the ratio to parent in assay [2] came to 1.2. Same read-out and setting: with “mature human FGF21 polypeptide fused with the human Fc fragment at the N-terminus (Fc-FGF21), wild type (from UniProt Q9NSA1) 175P-R” the figure was 1.4; with “mature human FGF21 polypeptide fused with the human Fc fragment at the N-terminus (Fc-FGF21), wild type (from UniProt Q9NSA1) 198G-R”, 0.5; with “mature human FGF21 polypeptide fused with the human Fc fragment at the N-terminus (Fc-FGF21), wild type (from UniProt Q9NSA1) 179G-R”, 1. On the same count and under the same terms, the result for “mature human FGF21 polypeptide fused with the human Fc fragment at the N-terminus (Fc-FGF21), wild type (from UniProt Q9NSA1) 200S-A” reads 0.8; that for “mature human FGF21 polypeptide fused with the human Fc fragment at the N-terminus (Fc-FGF21), wild type (from UniProt Q9NSA1) 184Q-A”, 1.2. Regarding “FGF19 C-terminal peptide, WT FGF19^185–216 (from UniProt O95750) 201G-A”, the ratio to parent in assay [1] (setting [3]) amounted to 19; in assay [1] (setting [4]), 20.

In the case of “mature human FGF21 polypeptide fused with the human Fc fragment at the N-terminus (Fc-FGF21), wild type (from UniProt Q9NSA1) 168P-A”, the ratio to parent in assay [2] came to 0.5. On the same count and under the same terms, the result for “mature human FGF21 polypeptide fused with the human Fc fragment at the N-terminus (Fc-FGF21), wild type (from UniProt Q9NSA1) 198G-A” reads 0.5.

As to “FGF19 C-terminal peptide, WT FGF19^185–216 (from UniProt O95750) 193E-A”, the ratio to parent in assay [1] (setting [3]) and in assay [1] (setting [4]) was 0.3 each time. Regarding “mature human FGF21 polypeptide fused with the human Fc fragment at the N-terminus (Fc-FGF21), wild type (from UniProt Q9NSA1) 173A-R”, the ratio to parent in assay [2] is 0.6. In the case of “mature human FGF21 polypeptide fused with the human Fc fragment at the N-terminus (Fc-FGF21), wild type (from UniProt Q9NSA1) 209S-R”, the ratio to parent in assay [2] worked out at 1.6. Still for that read-out and setting: the result for “mature human FGF21 polypeptide fused with the human Fc fragment at the N-terminus (Fc-FGF21), wild type (from UniProt Q9NSA1) 182A-R” reads 1.4; that for “mature human FGF21 polypeptide fused with the human Fc fragment at the N-terminus (Fc-FGF21), wild type (from UniProt Q9NSA1) 188V-A”, 200.

On to “FGF19 C-terminal peptide, WT FGF19^185–216 (from UniProt O95750) 206L-A”, for which the ratio to parent in assay [1] (setting [3]) is 0.9; in assay [1] (setting [4]) it was 0.8. Regarding “mature human FGF21 polypeptide fused with the human Fc fragment at the N-terminus (Fc-FGF21), wild type (from UniProt Q9NSA1) 164F-A”, the ratio to parent in assay [2] is 0.8.
